# B1: S304 antibody (IgG1) (antibody, V domains shown)
# VH: EVQLVESGGGLVQPGGSLRLSCAASGFTFSSYDMHWVRQTTGKGLEWVSTIGTAGDTYYPDSVKGRFTISREDAKNSLYLQMNSLRAGDTAVYYCARGDSSGYYYYFDYWGQGTLLTVSS
# VL: DIQMTQSPSSLSAAVGDRVTITCRASQSIGSYLNWYQQKPGKAPKLLIYAASSLQSGVPSRFSGSGSGTDFTLTISSLQPEDFAIYYCQQSYVSPTYTFGPGTKVDIK
# Target: prototypic SARS-CoV-2 RBD (residues 319-541) (SARS-CoV-2 (prototype), UniProt P0DTC2 319-541)
# Assay: SPR
binder,measurement,value
B1,koff,0.00664 s⁻¹
